According to patent US20230134571A1 (INTERNATIONAL AIDS VACCINE INITIATIVE, published 2023):

Key:
Assay in all cases: cell-based or functional assay
[1] = biological target: HIV Env, isolate 1012_11_TC21_3257 (HIV)
[2] = biological target: HIV Env, isolate REJO4541.67 (HIV)
[3] = biological target: HIV Env, isolate WEAU_d15_410_5017 (HIV)
HIV Env, isolate CNE20 = HIV Env, isolate CNE20 (HIV)
HIV Env, isolate CNE21 = HIV Env, isolate CNE21 (HIV)
[4] = biological target: HIV Env, isolate 7030102001E5(Rev-) (HIV)
[5] = biological target: HIV Env, isolate Ce0393_C3 (HIV)
HIV Env, isolate Du422.1 = HIV Env, isolate Du422.1 (HIV)
[6] = biological target: HIV Env, isolate P0402_C2_11 (HIV)
[7] = biological target: HIV Env, isolate X2088_C9 (HIV)

B1: ePGDM9 (antibody, V domains shown)
VH: QAQLVQSGPEVRKPGTSVKVSCKNPGNTLTTYDLHWVRQVPGQGLQWMGWISHEGDKKVIVERFKAKVTIDWDRSTNTAYLQLSGLTSEDTAVYYCAKGSKHRLRDYALYDEDGALNWAVDVDYLANLEFWGQGTAVTVSS
VL: DIVLTQSPLSLSVTPGESASISCKSSQSLIHGDRNNYLAWYVQKPGRSPQLLIDLASERASGVPDRFSGSGSRKDFTLKISRVETEDVGTYYCMQGRESPWTFGQGTKVDIK
[1]
  IC80 (µg/ml) with constrains: 0.167 µg/mL
[2]
  IC80 (µg/ml) with constrains: 0.003 µg/mL
[3]
  IC80 (µg/ml) with constrains: 0.009 µg/mL
HIV Env, isolate CNE20
  IC80 (µg/ml) with constrains: 0.008 µg/mL
HIV Env, isolate CNE21
  IC80 (µg/ml) with constrains: 0.007 µg/mL
[4]
  IC80 (µg/ml) with constrains: > 100 µg/mL
[5]
  IC80 (µg/ml) with constrains: 0.017 µg/mL
HIV Env, isolate Du422.1
  IC80 (µg/ml) with constrains: 53.2 µg/mL
[6]
  IC80 (µg/ml) with constrains: 0.003 µg/mL
[7]
  IC80 (µg/ml) with constrains: > 100 µg/mL

B2: ePGDM5 (antibody, V domains shown)
VH: QAQLVQSGPEVRKPGTSVKVSCKNPGNTLTTYDLHWVRQVPGQGLQWMGWISHEGDKKVIVERFKAKVTIDWDRSTNTAYLQLSGLTSEDTAVYYCAKGSKHRLRDYALYDEDGALNWAVDVDYLANLEFWGQGTAVTVSS
VL: DFVLTQSPLSLSVTPGESASISCKSDHSLQHGDRNNYLAWYVQKPGRSPQLLIDLASERASGVPDRFSGSGSRKDFTLKIDRVEAEDVGTYYCMQGRESPWTFGQGTKVDIK
[1]
  IC80 (µg/ml) with constrains: 0.305 µg/mL
[2]
  IC80 (µg/ml) with constrains: 0.005 µg/mL
[3]
  IC80 (µg/ml) with constrains: 0.003 µg/mL
HIV Env, isolate CNE20
  IC80 (µg/ml) with constrains: 0.015 µg/mL
HIV Env, isolate CNE21
  IC80 (µg/ml) with constrains: 0.007 µg/mL
[4]
  IC80 (µg/ml) with constrains: > 100 µg/mL
[5]
  IC80 (µg/ml) with constrains: 0.063 µg/mL
HIV Env, isolate Du422.1
  IC80 (µg/ml) with constrains: 34.6 µg/mL
[6]
  IC80 (µg/ml) with constrains: 0.015 µg/mL
[7]
  IC80 (µg/ml) with constrains: > 100 µg/mL

B3: PGDM1400 (antibody, V domains shown)
VH: QVHLTQSGPEVRKPGTSVKVSCKAPGNTLKTYDLHWVRSVPGQGLQWMGWISHEGDKKVIVERFKAKVTIDWDRSTNTAYLQLSGLTSGDTAVYYCAKGSKHRLRDYALYDDDGALNWAVDVDYLSNLEFWGQGTAVTVSS
VL: DFVLTQSPHSLSVTPGESASISCKSSHSLIHGDRNNYLAWYVQKPGRSPQLLIYLASSRASGVPDRFSGSGSDKDFTLKISRVETEDVGTYYCMQGRESPWTFGQGTKVDIK
[1]
  IC80 (µg/ml) with constrains: 0.303 µg/mL
[2]
  IC80 (µg/ml) with constrains: 0.017 µg/mL
[3]
  IC80 (µg/ml) with constrains: 0.3 µg/mL
HIV Env, isolate CNE20
  IC80 (µg/ml) with constrains: 0.021 µg/mL
HIV Env, isolate CNE21
  IC80 (µg/ml) with constrains: 0.011 µg/mL
[4]
  IC80 (µg/ml) with constrains: > 100 µg/mL
[5]
  IC80 (µg/ml) with constrains: 0.037 µg/mL
HIV Env, isolate Du422.1
  IC80 (µg/ml) with constrains: > 100 µg/mL
[6]
  IC80 (µg/ml) with constrains: 0.027 µg/mL
[7]
  IC80 (µg/ml) with constrains: > 100 µg/mL

B4: ePGDM13 (antibody, V domains shown)
VH: QAQLVQSGPEVRKPGTSVKVSCKNPGNTLTTYDLHWVRQVPGQGLQWMGWISHEGDKKVIVERFKAKVTIDWDRSTNTAYLQLSGLTSEDTAVYYCAKGSKHRLRDYALYDEDGALNWAVDVDYLANLEFWGQGTAVTVSS
VL: DIVLTQSPLSLSVTPGESASISCKSSHSLQHGDRNNYLAWYVQKPGRSPQLLLDLASERASGVPDRFSGSGSEKDFTLKISRVETEDVGTYYCMQGRESPWTFGQGTKVDIK
[1]
  IC80 (µg/ml) with constrains: 0.26 µg/mL
[2]
  IC80 (µg/ml) with constrains: 0.008 µg/mL
[3]
  IC80 (µg/ml) with constrains: 0.012 µg/mL
HIV Env, isolate CNE20
  IC80 (µg/ml) with constrains: 0.015 µg/mL
HIV Env, isolate CNE21
  IC80 (µg/ml) with constrains: 0.006 µg/mL
[4]
  IC80 (µg/ml) with constrains: > 100 µg/mL
[5]
  IC80 (µg/ml) with constrains: 0.022 µg/mL
HIV Env, isolate Du422.1
  IC80 (µg/ml) with constrains: > 100 µg/mL
[6]
  IC80 (µg/ml) with constrains: 0.006 µg/mL
[7]
  IC80 (µg/ml) with constrains: > 100 µg/mL
